One data set deals with T1, DivJ (Caulobacter vibrioides, UniProt Q03228).
T1 construct: His-tagged, recombinant from E. coli
Nature of the data set: coupled-enzyme (PK/LDH, NADH) ATPase assay. In kind it is biochemical. To be noted: 1 mM ATP, 10 mM MgCl2, kinase buffer pH 8.0; with and without DivK activator.

The next data set addresses T2, DivL(523–769) (Caulobacter vibrioides, UniProt Q9RQQ9).
T2 construct: DHp-CA domains only (no PAS domains), residues 523-769, N-terminal His6, E. coli Rosetta (DE3) pLysS, homodimer in solution
T2 sequence (Q9RQQ9 523-769): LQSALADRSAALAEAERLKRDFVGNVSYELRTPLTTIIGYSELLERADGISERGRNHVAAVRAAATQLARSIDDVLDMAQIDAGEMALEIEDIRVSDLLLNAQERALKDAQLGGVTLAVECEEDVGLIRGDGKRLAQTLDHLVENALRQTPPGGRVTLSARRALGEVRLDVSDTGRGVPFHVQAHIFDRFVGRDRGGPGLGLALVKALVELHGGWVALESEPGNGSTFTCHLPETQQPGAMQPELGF
Kind of data set: fluorescence titration of TNP-ATP with DivL. To be noted: read-out: apparent binding constant.

Data set [1] concerns the molecule itself. Kind of data set: SEC; 2 mg/ml His6-DivL(523–769) on Superdex 200 10/300 GL against Bio-rad standards.
In data set [2] the target is BODIPY-DivK (unphosphorylated DivK response regulator) (Caulobacter crescentus). Kind of data set: fluorescence polarisation; 250 nM BODIPY-DivK or BODIPY-DivK∼P with varying kinase concentrations (DivL 0–120 µM), 45 min to equilibrium; DivK∼P made with 250 nM DivJ, 1 mM ATP, 5 mM MgCl2; unphosphorylated DivK with 1 mM AMP-PNP, 5 mM MgCl2; apparent Kd. On the technique in general: Polarisation of emitted light reports the rotation of a fluorescent probe.
Chain of BODIPY-DivK (unphosphorylated DivK response regulator) (Caulobacter crescentus) (Q45976 entry or part of it): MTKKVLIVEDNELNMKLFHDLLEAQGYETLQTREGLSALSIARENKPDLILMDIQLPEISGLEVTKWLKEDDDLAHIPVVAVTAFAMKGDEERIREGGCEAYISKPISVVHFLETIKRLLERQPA

Data set [3] deals with BODIPY-DivK∼P (phosphorylated DivK response regulator) (Caulobacter crescentus). The data set is described as above.
Chain of BODIPY-DivK∼P (phosphorylated DivK response regulator) (Caulobacter crescentus) (Q45976 entry or part of it): as above

T1 sequence (Q03228 189-597): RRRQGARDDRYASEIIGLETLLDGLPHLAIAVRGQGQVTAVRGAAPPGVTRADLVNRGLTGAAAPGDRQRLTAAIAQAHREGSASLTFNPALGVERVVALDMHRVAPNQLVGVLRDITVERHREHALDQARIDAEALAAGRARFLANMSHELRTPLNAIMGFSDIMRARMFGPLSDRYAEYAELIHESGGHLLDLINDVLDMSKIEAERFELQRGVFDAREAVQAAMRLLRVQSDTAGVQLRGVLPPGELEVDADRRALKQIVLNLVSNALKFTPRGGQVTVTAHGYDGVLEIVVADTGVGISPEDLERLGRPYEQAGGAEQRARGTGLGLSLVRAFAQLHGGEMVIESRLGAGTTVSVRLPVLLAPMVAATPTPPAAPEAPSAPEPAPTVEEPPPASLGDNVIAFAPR

`Nc1ncnc2c1ncn2[C@@H]1O[C@H](COP(=O)(O)OP(=O)(O)OP(=O)(O)O)[C@@H](O)[C@H]1O` [ATP]: the ATP consumption rate result on DivJ was “we observed stimulation of DivJ autokinase activity in the presence of DivK”. Turning to `Nc1ncnc2c1ncn2[C@@H]1O[C@H](COP(=O)(O)OP(=O)(O)OP(=O)(O)O)[C@H]2OC3(O[C@H]21)C([N+](=O)[O-])=CC(=[N+]([O-])O)C=C3[N+](=O)[O-]` (some centres unmarked) [TNP-ATP], at DivL(523–769), the Kd worked out at 57 ± 8 µM.

B1: His6-DivL(523–769) (domain or fragment, Caulobacter crescentus, UniProt Q9RQQ9 523-769, looked up)
chain: T2 sequence (Q9RQQ9 523-769)
notes: DivL pseudo-histidine kinase, Caulobacter crescentus, residues 523-769 (DHp and CA domains with part of the N-terminal input helix); also called DivL DHp-CA construct; crystallization construct; source: E. coli Rosetta (DE3) pLysS (plasmid pWSC8), purified (Ni-NTA, gel filtration); not shown: His6, N-terminal, kept
The stoichiometry N is a count of units in the complex or per binding partner. With B1, in data set [1], the “stoichiometry N” value is 2. Moreover, the Kd in data set [2] worked out at 15 µM; in data set [3], 7 µM.

For the origin of these results see paper PMC4211667, “Cell Fate Regulation Governed by a Repurposed Bacterial Histidine Kinase” (PLoS Biology, 2014).
